Results from IntAct's records for PubMed 22198837.

B1: Histone chaperone RTT106 (Saccharomyces cerevisiae), P40161 (parent)
chain: MSKLFLDELPESLSRKIGTVVRVLPSSLEIFEELYKYALNENSNDRSGRHKKPRIDVSSDLLKTDEISETNTIFKLEGVSVLSPLRKKLDLVFYLSNVDGSPVITLLKGNDRELSIYQLNKNIKMASFLPVPEKPNLIYLFMTYTSCEDNKFSEPVVMTLNKENTLNQFKNLGLLDSNVTDFEKCVEYIRKQAILTGFKISNPFVNSTLVDTDAEKINSFHLQCHRGTKEGTLYFLPDHIIFGFKKPILLFDASDIESITYSSITRLTFNASLVTKDGEKYEFSMIDQTEYAKIDDYVKRKQMKDKSMSEELKAKSKSKGQATDGTADQPSILQEATRQMQDEKKAGVFSDDDEENDQNFEAESDLSDGSGQESSDGAEDGEEAEEDDEEDDEEEDKKGQSALNRDNSFASINGQPEQELQYKEFKEPLELEDIPIEIDNDDDEDDEDGSGVEYD

Variants of: B1
Conditions: with h3_yeast HHT1, P61830

Effect of a mutation on the interaction, disrupting interaction strength:
S80E
R86A
T265E
